Test results taken from patent US12059458B2, “Peptides and combination of peptides and scaffolds for use in immunotherapy against renal cell carcinoma (RCC) and other cancers” (Immatics Biotechnologies GmbH, priority 2015, dated 2024).

Each substance was assayed on CD8+ T cells of healthy HLA-A*02 donors (assay: In vitro immunogenicity: T-cell priming with aAPCs loaded with peptide/MHC complexes and anti-CD28 antibody, pMHC multimer readout). Conditions: Table 10B.
Type: cell-based, human
Text: In order to obtain information regarding the immunogenicity of the TUMAPs of the present invention, the inventors performed investigations using an in vitro T-cell priming assay based on repeated stimulations of CD8+ T cells with artificial antigen presenting cells (aAPCs) loaded with peptide/MHC complexes and anti-CD28 antibody.
In order to perform in vitro stimulations by artificial antigen presenting cells loaded with peptide-MHC complex (pMHC) and anti-CD28 antibody, the inventors first isolated CD8+ T cells from fresh HLA-A*02 leukapheresis products via positive selection using CD8 microbeads (Miltenyi Biotec, Bergisch-Gladbach, Germany) of healthy donors obtained from the University clinics Mannheim, Germany, after informed consent.
PBMCs and isolated CD8+ lymphocytes were incubated in T-cell medium (TCM) until use consisting of RPMI-Glutamax (Invitrogen, Karlsruhe, Germany) supplemented with 10% heat inactivated human AB serum (PAN-Biotech, Aidenbach, Germany), 100 U/ml Penicillin/100 μg/ml Streptomycin (Cambrex, Cologne, Germany), 1 mM sodium pyruvate (CC Pro, Oberdorla, Germany), 20 μg/ml Gentamycin (Cambrex). 2.5 ng/ml IL-7 (PromoCell, Heidelberg, Germany) and 10 U/ml IL-2 (Novartis Pharma, Nümberg, Germany) were also added to the TCM at this step.
Generation of pMHC/anti-CD28 coated beads, T-cell stimulations and readout was performed in a highly defined in vitro system using four different pMHC molecules per stimulation condition and 8 different pMHC molecules per readout condition.
The purified co-stimulatory mouse IgG2a anti human CD28 Ab 9.3 (Jung et al., 1987) was chemically biotinylated using Sulfo-N-hydroxysuccinimidobiotin as recommended by the manufacturer (Perbio, Bonn, Germany). Beads used were 5.6 μm diameter streptavidin coated polystyrene particles (Bangs Laboratories, Illinois, USA).
pMHC used for positive and negative control stimulations were A*0201/MLA-001 (peptide […] (SEQ ID NO. 152) from modified Melan-A/MART-1) and A*0201/DDX5-001 ([…] from DDX5 (SEQ ID NO. 153)), respectively.
800.000 beads/200 μl were coated in 96-well plates in the presence of 4×12.5 ng different biotin-pMHC, washed and 600 ng biotin anti-CD28 were added subsequently in a volume of 200 μl. Stimulations were initiated in 96-well plates by co-incubating […] CD8+ T cells with 2×10^5 washed coated beads in 200 μl TCM supplemented with 5 ng/ml IL-12 (PromoCell) for 3 days at 37° C. Half of the medium was then exchanged by fresh TCM supplemented with 80 U/ml IL-2 and incubating was continued for 4 days at 37° C. This stimulation cycle was performed for a total of three times. For the pMHC multimer readout using 8 different pMHC molecules per condition, a two-dimensional combinatorial coding approach was used as previously described (Andersen et al., 2012) with minor modifications encompassing coupling to 5 different fluorochromes. Finally, multimeric analyses were performed by staining the cells with Live/dead near IR dye (Invitrogen, Karlsruhe, Germany), CD8-FITC antibody clone SK1 (BD, Heidelberg, Germany) and fluorescent pMHC multimers. For analysis, a BD LSRII SORP cytometer equipped with appropriate lasers and filters was used. Peptide specific cells were calculated as percentage of total CD8+ cells. Evaluation of multimeric analysis was done using the FlowJo software (Tree Star, Oregon, USA). In vitro priming of specific multimer+ CD8+ lymphocytes was detected by comparing to negative control stimulations.

Substance | Wells positive [%]
1 (ALIVSLPYL; listed as Homo sapiens) [compound 1] | + (<20% = +)
2 (ILWREVVTL; listed as Homo sapiens) [compound 2] | + (<20% = +)
3 (RLLGEVQAL; listed as Homo sapiens) [compound 3] | + (<20% = +)
6 (VLFELSKTV; listed as Homo sapiens) [compound 6] | + (<20% = +)
7 (FLLSLIDRL; listed as Homo sapiens) [compound 7] | + (<20% = +)
9 (ILLQKPDSV; listed as Homo sapiens) [compound 9] | + (<20% = +)
15 (ILIKHLVKV; listed as Homo sapiens) [compound 15] | + (<20% = +)
16 (FMPEELPQL; listed as Homo sapiens) [compound 16] | + (<20% = +)
18 (YVLDLAAKV; listed as Homo sapiens) [compound 18] | ++ (20%-49% = ++)
20 (AVANTTFTV; listed as Homo sapiens) [compound 20] | + (<20% = +)
22 (FLSPPLPSV; listed as Homo sapiens) [compound 22] | ++ (20%-49% = ++)
29 (ILLDLEQAL; listed as Homo sapiens) [compound 29] | + (<20% = +)
34 (ELNNQNFYL; listed as Homo sapiens) [compound 34] | ++ (20%-49% = ++)
36 (SLFGKKYIL; listed as Homo sapiens) [compound 36] | ++ (20%-49% = ++)
94 (ILHHKVYDL; listed as Homo sapiens) [compound 94] | ++ (20%-49% = ++)

Same assay, conditions: percentage of positive donors, Table 10A

Substance | donors
123 (YVDPVITSI; listed as Homo sapiens) [compound 123] | ++++ (> = 70% = ++++)
127 (VLAPLFVYL; listed as Homo sapiens) [compound 127] | ++++ (> = 70% = ++++)
143 (ALFVRLLALA; listed as Homo sapiens) [compound 143] | +++ (50%-69% = +++)

Same assay, conditions: percentage of positive wells, Table 10A

Substance | wells
123 (YVDPVITSI; listed as Homo sapiens) [compound 123] | + (<20% = +)
127 (VLAPLFVYL; listed as Homo sapiens) [compound 127] | ++ (20%-49% = ++)
143 (ALFVRLLALA; listed as Homo sapiens) [compound 143] | + (<20% = +)

What follows are substances tested against HLA-A*02:01 (Homo sapiens, UniProt P04439, D140Y/D185E/D98H/E176V/E277Q/G131W/G231S/I119V/I121R/I166T/I218V/L300P/L318F/N151K/N90K/P208A/P217A/Q86G/Q94H/R138H/R169H/T345S) (assay: MHC binding assay (UV-ligand exchange, beta2m ELISA, peptide exchange yield)). Conditions: binding to HLA-A*02:01 ranged by peptide exchange yield, β2m ELISA.
Text: Candidate peptides for T cell based therapies according to the present invention were further tested for their MHC binding capacity (affinity). The individual peptide-MHC complexes were produced by UV-ligand exchange, where a UV-sensitive peptide is cleaved upon UV-irradiation, and exchanged with the peptide of interest as analyzed. Only peptide candidates that can effectively bind and stabilize the peptide-receptive MHC molecules prevent dissociation of the MHC complexes. To determine the yield of the exchange reaction, an ELISA was performed based on the detection of the light chain (β2m) of stabilized MHC complexes. The assay was performed as generally described in Rodenko et al. (Rodenko et al., 2006).
96 well MAXISorp plates (NUNC) were coated over night with 2 ug/ml streptavidin in PBS at room temperature, washed 4× and blocked for 1 h at 37° C. in 2% BSA containing blocking buffer. Refolded HLA-A*02:01/MLA-001 monomers served as standards, covering the range of 15-500 ng/ml. Peptide-MHC monomers of the UV-exchange reaction were diluted 100 fold in blocking buffer. Samples were incubated for 1 h at 37° C., washed four times, incubated with 2 ug/ml HRP conjugated anti-β2m for 1h at 37° C., washed again and detected with TMB solution that is stopped with […]. Absorption was measured at 450 nm. Candidate peptides that show a high exchange yield (preferably higher than 50%, most preferred higher than 75%) are generally preferred for a generation and production of antibodies or fragments thereof, and/or T cell receptors or fragments thereof, as they show sufficient avidity to the MHC molecules and prevent dissociation of the MHC complexes.

Peptide exchange (MHC class I binding score) | Substance
+++ (≥50 = +++) | 102 (LLFDVHTTL; listed as Homo sapiens) [compound 102]
++ (≥20% = ++) | 103 (KLQDGLLHI; listed as Homo sapiens) [compound 103]
+++ (≥50 = +++) | 104 (ALFEGVVRQI; listed as Homo sapiens) [compound 104]
+++ (≥50 = +++) | 105 (ALADLDELLIRA; listed as Homo sapiens) [compound 105]
+++ (≥50 = +++) | 106 (VLMDLKALL; listed as Homo sapiens) [compound 106]
+++ (≥50 = +++) | 107 (VLMDLKALLL; listed as Homo sapiens) [compound 107]
++ (≥20% = ++) | 108 (VLISVLQAI; listed as Homo sapiens) [compound 108]
++++ (≥75% = ++++) | 109 (YLWSRVEKL; listed as Homo sapiens) [compound 109]
++ (≥20% = ++) | 110 (LLDLHSYLL; listed as Homo sapiens) [compound 110]
++ (≥20% = ++) | 111 (TLLETEMLL; listed as Homo sapiens) [compound 111]
+++ (≥50 = +++) | 112 (LLFDHLEPIEL; listed as Homo sapiens) [compound 112]
+++ (≥50 = +++) | 113 (SLFDWNVKL; listed as Homo sapiens) [compound 113]
+++ (≥50 = +++) | 114 (ALAVNISAA; listed as Homo sapiens) [compound 114]

Further lines, the substance ahead of its results:

Substance | Peptide exchange (MHC class I binding score)
1 (ALIVSLPYL; listed as Homo sapiens) [compound 1] | +++ (≥50 = +++)
2 (ILWREVVTL; listed as Homo sapiens) [compound 2] | +++ (≥50 = +++)
3 (RLLGEVQAL; listed as Homo sapiens) [compound 3] | ++ (≥20% = ++)
6 (VLFELSKTV; listed as Homo sapiens) [compound 6] | +++ (≥50 = +++)
7 (FLLSLIDRL; listed as Homo sapiens) [compound 7] | +++ (≥50 = +++)
9 (ILLQKPDSV; listed as Homo sapiens) [compound 9] | ++ (≥20% = ++)
15 (ILIKHLVKV; listed as Homo sapiens) [compound 15] | ++ (≥20% = ++)
16 (FMPEELPQL; listed as Homo sapiens) [compound 16] | ++ (≥20% = ++)
18 (YVLDLAAKV; listed as Homo sapiens) [compound 18] | +++ (≥50 = +++)
20 (AVANTTFTV; listed as Homo sapiens) [compound 20] | ++ (≥20% = ++)
22 (FLSPPLPSV; listed as Homo sapiens) [compound 22] | +++ (≥50 = +++)
29 (ILLDLEQAL; listed as Homo sapiens) [compound 29] | +++ (≥50 = +++)
34 (ELNNQNFYL; listed as Homo sapiens) [compound 34] | +++ (≥50 = +++)
36 (SLFGKKYIL; listed as Homo sapiens) [compound 36] | ++ (≥20% = ++)
85 (FVMSEIRTV; listed as Homo sapiens) [compound 85] | +++ (≥50 = +++)
86 (GLLQGKLALL; listed as Homo sapiens) [compound 86] | ++ (≥20% = ++)
88 (TLAELHISL; listed as Homo sapiens) [compound 88] | ++ (≥20% = ++)
89 (SLLLAVTEV; listed as Homo sapiens) [compound 89] | ++ (≥20% = ++)
90 (FTLEKNFVI; listed as Homo sapiens) [compound 90] | ++ (≥20% = ++)
91 (MLLSSLVSL; listed as Homo sapiens) [compound 91] | ++ (≥20% = ++)
92 (FLFRDILEL; listed as Homo sapiens) [compound 92] | +++ (≥50 = +++)
93 (GVMAGDIYSV; listed as Homo sapiens) [compound 93] | ++++ (≥75% = ++++)
94 (ILHHKVYDL; listed as Homo sapiens) [compound 94] | ++ (≥20% = ++)
96 (TLAETLVNL; listed as Homo sapiens) [compound 96] | +++ (≥50 = +++)
97 (TLISELVQA; listed as Homo sapiens) [compound 97] | ++ (≥20% = ++)
99 (GLAPHLEQI; listed as Homo sapiens) [compound 99] | ++ (≥20% = ++)
100 (KLNVAPLAV; listed as Homo sapiens) [compound 100] | ++ (≥20% = ++)
101 (HIYDKAFITV; listed as Homo sapiens) [compound 101] | ++ (≥20% = ++)
